From PMC2115537

Target: F-actin (rabbit skeletal muscle actin filaments) (rabbit) (UniProt P68135)
Experiment: co-sedimentation

| initial Kd (bivalent cooperativity model) [µM] | Kd [µM] | Substance |
| --- | --- | --- |
| 168 |  | 29-kD NH2-terminal fragment of synapsin I (domain or fragment) |
|  | 1.3 | 40-kD NH2-terminal/middle fragment of synapsin I (domain or fragment) |
|  | 0.6 | dephosphorylated 51/54-kD middle/tail fragment of synapsin I (domain or fragment) |
|  | 1.7 | phosphorylated 51/54-kD middle/tail fragment of synapsin I (domain or fragment) |
